According to patent publication US12636342B2, “TARS derived from Akkermansia muciniphila or fragment thereof, and use thereof” (KOREA RESEARCH INSTITUTE OF BIOSCIENCE AND BIOTECHNOLOGY, priority 2020, dated 2026):
“Also recorded” adds a separate entry of the source.

Assays:
[1] = tested on: human macrophages (THP1); assay: ELISA of immune cytokine secretion in THP1 under normal conditions; assay type: cell-based; details: THP1, 0.1, 0.2, 0.5 μM, 24 h
Experimental: Specifically, mouse bone marrow-derived macrophages (BMDMs) as mouse-derived immune cells were extracted from the mouse thighbone and shinbone, and then cultured in DMEM containing 10% fetal bovine serum (FBS) and antibiotics. Human macrophages (THP1) as human-derived immune cells were cultured in RPMI media containing 10% FBS and antibiotics.
The cultured cells were treated with AmTARS at 0.1 μM, 0.2 μM, and 0.5 μM for 24 h to obtain cell cultures. For cell removal, the media were centrifuged at 500×g for 10 min to obtain supernatants, which were then analyzed using an ELISA set (mouse interleukin (IL)-6, mouse IL-10, mouse tumor necrosis factor (TNF)-α, human IL-6, human IL-10, human TNF-α; BD Biosciences) to investigate the secretion of mouse- and human-derived immune cytokines.

[2] = tested on: peritoneal macrophages from TLR2-KO mice; assay: M2 macrophage polarization in TLR2-KO mice under non-inflammatory conditions; assay type: in vivo, mouse; details: 24 h
Experimental: (A and B) AmTARS interacts directly with TLR2. Pull-down assay using lysates of HEK 293T cells transfected with Strep-AmTARS and TLR2-FLAG (A). The proteins precipitated by an anti-Strep antibody were analyzed by western blotting. In vitro interaction assay using purified TLR2-FLAG and His-tagged AmTARS proteins (B). Purified TLR2-FLAG was mixed with purified His-tagged AmTARS protein. His-tagged protein was precipitated by Ni-NTA, eluted, and analyzed by SDS-PAGE. (C) TLR2-dependent anti-inflammatory function of AmTARS in BMDMs (n=6 per group). (D) The unique regions within AmTARS are essential for anti-inflammatory function in a TLR2-dependent manner (n=8 per wild-type group and n=6 per TLR2 KO group). BMDMs from WT or TLR2-KO mice were treated with the indicated proteins (C and D). (E-I) TLR2-dependent function of AmTARS in vivo. WT or TLR2-KO mice with DSS-induced colitis were injected with either PBS or AmTARS. Daily changes in disease activity scores (E). Intestinal epithelial damage, as analyzed by H&E staining (F), and damage scores (G) (n=3 per group). […] After 24 h, PECs were isolated, and the percentage of M2 macrophages (CD206+CD11b+F4/80+) was measured by flow cytometry. […] P-values were calculated by an unpaired two-tailed Student's t-test.

[3] = tested on: mouse bone marrow-derived macrophages (BMDMs); assay: ELISA of immune cytokine secretion in LPS-treated BMDMs (inflammatory environment); assay type: cell-based; details: LPS-induced inflammatory environment, 24 h
Experimental: To determine whether AmTARS affects immune cytokine secretion when cellular inflammation was induced, mouse bone marrow-derived macrophages BMDMs as mouse-derived immune cells and human macrophages THP1 as human-derived immune cells were cultured by way of the same method as in Example 2.
Specifically, the cultured BMDMs and THP1 were treated with lipopolysaccharide (LPS) to induce an inflammatory response and were simultaneously treated with AmTARS at 0.1 μM, 0.2 μM, and 0.5 μM for 24 h to obtain cell cultures. The obtained cell cultures were analyzed for immune cytokine secretion by way of the same method as in Example 2.
Next, BMDMs were treated with LPS to create an inflammatory environment by way of the same method as in Example 3, and then treated with each TARS (AmTARS, BfTARS, eTARS, and hTARS) to investigate the secretion of IL-10.
An inflammatory environment was created through LPS in BMDMs by way of the same method as in Example 3, and then the cells were treated with the four types of fragments, and the immune cytokine secretion was determined by ELISA.

B1: Akkermansia muciniphila-derived threonyl-tRNA synthetase (TARS) (protein)
chain: MSEHKERKTLEERQQMSDLERLRHSCAHVLATAICRLWPDAQLAGGPAVDNGFYYDVELDHRISTEDFERIEEEMKKVVKENQVFQKEVISRADAMKMAESGELGALGPRSEPSRFKIDLLNDIPEDEEISLYRNGDFTDLCAGPHVGRTGNCKAFKIMSVASAFYKGDKNRPMLQRIYGTCFPNRTQLDEHLERLEEARRRDHRKLGRELGLFCIDESVGQGLILWKPKGALIRRSLQDFITEELDKLGYSQVYTPNIGKLDLYRTSGHFPYYQESQYAPIPERDAMEKLSQEGASCAELFNGLATGTIEGYMLKPMNCPHHIKIYANDAHSYRDLPVRLAEFGTVYRWEQSGELGGMTRVRGFTQDDAHIFCTPDQLAGEIRQCLGIVKTIFGTLGMTDYRVRLSMRDPESDKYVGSPENWDKAEQALREAAEWLGADYSEEAGEAAFYGPKIDFIVRDAIGREWQLGTVQVDYNLPERFDLHYTGADNKPHRPVMVHRAPFGSMERFTGLLIEHFEGKFPTWLSPEQVRVLPISDKVTDVAAAHRTALAARGVRVTVDETPDKIGAKIRNARLDRVPYMLVLGQREAEDGTVSVRHRDKGDLGAMPFEQFADLVAREIAERHISPVI
modifications: Akkermansia muciniphila TARS
[1]
  secretion of IL-6: not secreted
  secretion of IL-10: increased in a dose-dependent manner
  secretion of TNF-α: not secreted
[2]; TLR2-KO mice, non-inflammatory conditions
  M2 macrophage polarization of peritoneal macrophages: did not cause M2 macrophage polarization
[2]; TLR2-KO
  M2 macrophages in PECs isolated from TLR2-KO mice (FIG. 28K): no M2 macrophages were observed
[3]
  secretion of IL-6: suppressed; also recorded: reduced in a dose-dependent manner
  secretion of IL-10: increased IL-10 levels; also recorded: increased in a dose-dependent manner; also recorded: increased in a protein concentration-dependent manner
  secretion of TNF-α: suppressed; also recorded: reduced in a dose-dependent manner
